B1: 374_C06 (antibody, V domains shown)
VH: EVQLLESGGGLVQPGGSLRLSCAASGFTFDDYSMNWVRQAPGKGLEWVSSINYNSGYKGYADSVKGRFTISRDNSKNTLYLQMNSLRAEDTAVYYCARSANWHDTALDYWGQGTLVTVSS
VL: DIQMTQSPSSLSASVGDRVTITCRASQSILTYVNWYQQKPGKAPKLLIYAATSRASGVPSRFSGSGSGTDFTLTISSLQPEDFATYYCQQSYNSPLTFGGGTKVEIK
B2: 374_D01 (antibody, V domains shown)
VH: EVQLLESGGGLVQPGGSLRLSCAASGFTFDSYSMNWVRQAPGKGLEWVSGINYNSGYKGYADSVKGRFTISRDNSKNTLYLQMNSLRAEDTAVYYCARSANWHDTALDYWGQGTLVTVSS
VL: DIQMTQSPSSLSASVGDRVTITCRASQSIITYVNWYQQKPGKAPKLLIYAATSLASGVPSRFSGSGSGTDFTLTISSLQPEDFATYYCQQSYSSPLTFGGGTKVEIK
B3: 374_D08 (antibody, V domains shown)
VH: EVQLLESGGGLVQPGGSLRLSCAASGFTFDSYGMNWVRQAPGKGLEWVSGINYNSGYTGYADSVKGRFTISRDNSKNTLYLQMNSLRAEDTAVYYCARSANWHDTHLDYWGQGTLVTVSS
VL: DIQMTQSPSSLSASVGDRVTITCRASQSILTYLNWYQQKPGKAPKLLIYAATSRHSGVPSRFSGSGSGTDFTLTISSLQPEDFATYYCQQSYESPLTFGGGTKVEIK
B4: 374_E01 (antibody, V domains shown)
VH: EVQLLESGGGLVQPGGSLRLSCAASGFTFSSYGMNWVRQAPGKGLEWVAGINYNGGYTSYADSVKGRFTISRDNSKNTLYLQMNSLRAEDTAVYYCARSANWHDTALDYWGQGTLVTVSS
VL: DIQMTQSPSSLSASVGDRVTITCRASQSISSYVNWYQQKPGKAPKLLIYAATSRASGVPSRFSGSGSGTDFTLTISSLQPEDFATYYCQQSYSTPLTFGGGTKVEIK
B5: 374_A03 (antibody, V domains shown)
VH: EVQLLESGGGLVQPGGSLRLSCAASGFTFDSYSMNWVRQAPGKGLEWVSNINYNGGYTSYADSVKGRFTISRDNSKNTLYLQMNSLRAEDTAVYYCARSATWHDTHLDYWGQGTLVTVSS
VL: DIQMTQSPSSLSASVGDRVTITCRASQSILTYLNWYQQKPGKAPKLLIYAATSRASGVPSRFSGSGSGTDFTLTISSLQPEDFATYYCQQSYDNPLTFGGGTKVEIK
notes: VH and VL only
B6: 365_A02 (antibody, V domains shown)
VH: EVQLLESGGGLVQPGGSLRLSCAASGFTFDSYSMNWVRQAPGKGLEWVSNINYNGGYTSYADSVKGRFTISRDNSKNTLYLQMNSLRAEDTAVYYCARSATWHDTHLDYWGQGTLVTVSS
VL: DIQMTQSPSSLSASVGDRVTITCRASQSILTYVNWYQQKPGKAPKLLIYAATSRASGVPSRFSGSGSGTDFTLTISSLQPEDFATYYCQQSYNSPLTFGGGTKVEIK
notes: VH and VL only
B7: 365_A04 (antibody, V domains shown)
VH: EVQLLESGGGLVQPGGSLRLSCAASGFTFSDYSMNWVRQAPGKGLEWVSGINYNSGYTSYADSVKGRFTISRDNSKNTLYLQMNSLRAEDTAVYYCARSATWHDTHLDYWGQGTLVTVSS
VL: DIQMTQSPSSLSASVGDRVTITCRASQSIVSYVNWYQQKPGKAPKLVIYAATSLASGVPSRFSGSGSGTDFTLTISSLQPEDFATYYCQQSYSTPLTFGGGTKVEIK
notes: VH and VL only
B8: 365_D06 (antibody, V domains shown)
VH: EVQLLESGGGLVQPGGSLRLSCAASGFTFDSYSMNWVRQAPGKGLEWVSNINYNGGYTSYADSVKGRFTISRDNSKNTLYLQMNSLRAEDTAVYYCARSATWHDTHLDYWGQGTLVTVSS
VL: DIQMTQSPSSLSASVGDRVTITCRASQSILTYVNWYQQKPGKAPKLLIYAATSRASGVPSRFSGSGSGTDFTLTISSLQPEDFATYYCQQSYSLPLTFGGGTKVEIK
notes: VH and VL only
B9: 365_E03 (antibody, V domains shown)
VH: EVQLLESGGGLVQPGGSLRLSCAASGFTFDSYSMNWVRQAPGKGLEWVSNINYNGGYTGYADSVKGRFTISRDNSKNTLYLQMNSLRAEDTAVYYCARSATWHDTHLDYWGQGTLVTVSS
VL: DIQMTQSPSSLSASVGDRVTITCRASQSILTYVNWYQQKPGKAPKLLIYAATSLHSGVPSRFSGSGSGTDFTLTISSLQPEDFATYYCQQSDERPLTFGGGTKVEIK
notes: VH and VL only
B10: 365_E08 (antibody, V domains shown)
VH: EVQLLESGGGLVQPGGSLRLSCAASGFTFDSYSMNWVRQAPGKGLEWVSGINYNSGYTSYADSVKGRFTISRDNSKNTLYLQMNSLRAEDTAVYYCARSATWHDTHLDYWGQGTLVTVSS
VL: DIQMTQSPSSLSASVGDRVTITCRASQSIISYVNWYQQKPGKAPKLVIYAATSLASGVPSRFSGSGSGTDFTLTISSLQPEDFATYYCQQSYDLPLTFGGGTKVEIK
notes: VH and VL only
B11: 365_G02 (antibody, V domains shown)
VH: EVQLLESGGGLVQPGGSLRLSCAASGFTFSDYSMNWVRQAPGKGLEWVSNINYNSGYKGYADSVKGRFTISRDNSKNTLYLQMNSLRAEDTAVYYCARSATWHDTHLDYWGQGTLVTVSS
VL: DIQMTQSPSSLSASVGDRVTITCRASQSIVTYLNWYQQKPGKAPKLVIYAVTSLHSGVPSRFSGSGSGTDFTLTISSLQPEDFATYYCQQSYELPLTFGGGTKVEIK
notes: VH and VL only
B12: 365_H04 (antibody, V domains shown)
VH: EVQLLESGGGLVQPGGSLRLSCAASGFTFSDYGMNWVRQAPGKGLEWVSGINYNSGYKSYADSVKGRFTISRDNSKNTLYLQMNSLRAEDTAVYYCARSATWHDTHLDYWGQGTLVTVSS
VL: DIQMTQSPSSLSASVGDRVTITCRASQSILTYVNWYQQKPGKAPKLVIYAATSRASGVPSRFSGSGSGTDFTLTISSLQPEDFATYYCQQSYESPLTFGGGTKVEIK
notes: VH and VL only
B13: 365_H09 (antibody, V domains shown)
VH: EVQLLESGGGLVQPGGSLRLSCAASGFTFSSYGMNWVRQAPGKGLEWVSSINYNSGYKSYADSVKGRFTISRDNSKNTLYLQMNSLRAEDTAVYYCARSATWHDTHLDYWGQGTLVTVSS
VL: not shown
notes: VH and VL only
B14: 366_C03 (antibody, V domains shown)
VH: EVQLLESGGGLVQPGGSLRLSCAASGFTFDSYGMNWVRQAPGKGLEWVSNINYNGGYTGYADSVKGRFTISRDNSKNTLYLQMNSLRAEDTAVYYCARSATWHDTHLDYWGQGTLVTVSS
VL: DIQMTQSPSSLSASVGDRVTITCRASQSILSYLNWYQQKPGKAPKLVIYAATSRASGVPSRFSGSGSGTDFTLTISSLQPEDFATYYCQQSYSNPLTFGGGTKVEIK
notes: VH and VL only
B15: 366_C07 (antibody, V domains shown)
VH: EVQLLESGGGLVQPGGSLRLSCAASGFTFSSYSMNWVRQAPGKGLEWVSNINYNGGYTSYADSVKGRFTISRDNSKNTLYLQMNSLRAEDTAVYYCARSATWHDTHLDYWGQGTLVTVSS
VL: DIQMTQSPSSLSASVGDRVTITCRASQSILTYVNWYQQKPGKAPKLLIYAATSRASGVPSRFSGSGSGTDFTLTISSLQPEDFATYYCQQSYNSPLTFGGGTKVEIK
notes: VH and VL only
B16: 366_E02 (antibody, V domains shown)
VH: EVQLLESGGGLVQPGGSLRLSCAASGFTFSSYSMNWVRQAPGKGLEWVSGINYNSGYKGYADSVKGRFTISRDNSKNTLYLQMNSLRAEDTAVYYCARSATWHDTHLDYWGQGTLVTVSS
VL: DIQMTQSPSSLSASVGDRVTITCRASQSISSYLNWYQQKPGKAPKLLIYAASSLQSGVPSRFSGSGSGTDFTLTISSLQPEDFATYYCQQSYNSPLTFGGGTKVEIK
notes: VH and VL only
B17: 366_E03 (antibody, V domains shown)
VH: EVQLLESGGGLVQPGGSLRLSCAASGFTFDSYGMNWVRQAPGKGLEWVSNINYNGGYKSYADSVKGRFTISRDNSKNTLYLQMNSLRAEDTAVYYCARSATWHDTHLDYWGQGTLVTVSS
VL: DIQMTQSPSSLSASVGDRVTITCRASQSILTYLNWYQQKPGKAPKLVIYAATSRHSGVPSRFSGSGSGTDFTLTISSLQPEDFATYYCQQSYSNPLTFGGGTKVEIK
notes: VH and VL only
B18: 366_F06 (antibody, V domains shown)
VH: EVQLLESGGGLVQPGGSLRLSCAASGFTFSDYGMNWVRQAPGKGLEWVSSINYNGGYTSYADSVKGRFTISRDNSKNTLYLQMNSLRAEDTAVYYCARSATWHDTHLDYWGQGTLVTVSS
VL: DIQMTQSPSSLSASVGDRVTITCRASQSISTYLNWYQQKPGKAPKLLIYAATSLASGVPSRFSGSGSGTDFTLTISSLQPEDFATYYCQQSYSNPLTFGGGTKVEIK
notes: VH and VL only
B19: 367_A11 (antibody, V domains shown)
VH: EVQLLESGGGLVQPGGSLRLSCAASGFTFSSYGMHWVRQAPGKGLEWVSGINYNGGYTSYADSVKGRFTISRDNSKNTLYLQMNSLRAEDTAVYYCARSATWHDTHLDYWGQGTLVTVSS
VL: DIQMTQSPSSLSASVGDRVTITCRASQSILSYVNWYQQKPGKAPKLVIYATTSLASGVPSRFSGSGSGTDFTLTISSLQPEDFATYYCQQSYNSPLTFGGGTKVEIK
notes: VH and VL only

Tests used:
Human ACVR2A [1] = molecular target: T1, Human ACVR2A (human, UniProt P27037 20-135, limits assumed); assay: ELISA
T1 construct: also called activin receptor, type II A
Method in brief: (§1)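 mAb binding by ELISA; antigens: hu ACVR2A, mu ACVR2A; pos ctrl biotinylated goat anti-hu kappa LC; neg ctrl hu Fc.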

Mouse ACVR2A [2] = molecular target: Mouse ACVR2A (mouse, UniProt P27038 20-135, limits assumed); assay: ELISA
Method in brief: as §1

Goat anti-Human Kappa = molecular target: T2, Goat anti-Human Kappa; assay: ELISA, positive control
T2 construct: Positive control of the ELISA; also called biotinylated goat anti-human kappa light chain
Method in brief: as §1

human ACVR2A [3] = molecular target: T3, human ACVR2A (human, UniProt P27037 20-135, limits assumed); assay: ELISA
T3 construct: also called activin receptor, type II A
Method in brief: as §1

mouse ACVR2A [4] = molecular target: mouse ACVR2A (mouse, UniProt P27038 20-135, limits assumed); assay: ELISA
Method in brief: as §1

[5] = molecular target: T4, biotinylated goat anti-human kappa light chain; assay: ELISA, positive control
T4 construct: Positive control of the ELISA
Method in brief: as §1
Further: test concentration or dose not given here.

T3 sequence (P27037 20-135 limits assumed): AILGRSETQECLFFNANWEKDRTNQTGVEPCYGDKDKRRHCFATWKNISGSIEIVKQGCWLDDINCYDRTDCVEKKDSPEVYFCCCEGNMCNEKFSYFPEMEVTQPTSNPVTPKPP
T1 sequence (P27037 20-135 limits assumed): as above
Sequence of Mouse ACVR2A (P27038 20-135 limits assumed): as the sequence (P27037 20-135 limits assumed) above, with K20R, V73I counted along it
Sequence of mouse ACVR2A (P27038 20-135 limits assumed): as the sequence (P27037 20-135 limits assumed) above, with K20R, V73I counted along it

optical density (Human ACVR2A [1])	optical density (Mouse ACVR2A [2])	optical density (Goat anti-Human Kappa)	optical density (human ACVR2A [3])	optical density (mouse ACVR2A [4])	optical density [5]	Binder
3.71 OD	3.71 OD	3.24 OD				B1
3.24 OD	3.58 OD	2.94 OD				B2
3.5 OD	3.59 OD	3.02 OD				B3
3.24 OD	3.56 OD	3.04 OD				B4
			3.58 OD	3.71 OD	3.05 OD	B5
			3.03 OD	2.96 OD	3.49 OD	B6
			1.49 OD	1.41 OD	3.28 OD	B7
			2.95 OD	3.08 OD	3.42 OD	B8
			2.56 OD	2.69 OD	3.33 OD	B9
			2.59 OD	2.58 OD	3.33 OD	B10
			1.98 OD	2.15 OD	3.45 OD	B11
			2.47 OD	2.59 OD	3.5 OD	B12
			2.38 OD	2.56 OD	3.53 OD	B13
			2.41 OD	2.74 OD	3.55 OD	B14
			3.02 OD	3.06 OD	3.37 OD	B15
			2.26 OD	2.58 OD	3.46 OD	B16
			2.55 OD	2.72 OD	3.54 OD	B17
			1.87 OD	2.15 OD	3.44 OD	B18
			2.34 OD	2.52 OD	3.61 OD	B19

From patent US20210380703A1 (RIGEL PHARMACEUTICALS, published 2021)
